Legend:
[1] = tested on: ERα (endogenous, MT-2 nuclear extract) (human (MT-2 cells)); experiment: pull-down (anti-ERα, qPCR); details: normalized to 176 bp internal control DNA; EMSA: 10% glycerol, 80 mM KCl, 25 mM NaCl, 15 mM Tris pH 8.0, 0.18 mM EDTA, 1 mM MgCl2, 1.1 mM DTT, 50 uM Na3VO4, 33.3 ug/ml BSA, 150 ug/ml poly-dIdC, 20 min …
[2] = target: ERα (purified recombinant) (human, UniProt P03372 1-595); experiment: EMSA; below detection limit; EMSA: 10% glycerol, 80 mM KCl, 25 mM NaCl, 15 mM Tris pH 8.0, 0.18 mM EDTA, 1 mM MgCl2, 1.1 mM DTT, 50 uM Na3VO4, 33.3 ug/ml BSA, 150 ug/ml poly-dIdC, 20 min room temperature, gel at 4 C; pull-down: 60 mM KCl, 12 mM HEPES pH 8.0, 4 mM Tris pH 8.0, 0.5 mM EDTA, 5% glycerol, 1 mM DTT, salmon sperm DNA, on ice, then RIPA buffer, 4 C overnight; details: protein: recombinant; chain copies: 2; label: 32P (dATP, Klenow fill-in); blunt after Klenow fill-in (annealed oligos of 26 and 24 nt)
Sequence of ERα (purified recombinant) (P03372 whole entry): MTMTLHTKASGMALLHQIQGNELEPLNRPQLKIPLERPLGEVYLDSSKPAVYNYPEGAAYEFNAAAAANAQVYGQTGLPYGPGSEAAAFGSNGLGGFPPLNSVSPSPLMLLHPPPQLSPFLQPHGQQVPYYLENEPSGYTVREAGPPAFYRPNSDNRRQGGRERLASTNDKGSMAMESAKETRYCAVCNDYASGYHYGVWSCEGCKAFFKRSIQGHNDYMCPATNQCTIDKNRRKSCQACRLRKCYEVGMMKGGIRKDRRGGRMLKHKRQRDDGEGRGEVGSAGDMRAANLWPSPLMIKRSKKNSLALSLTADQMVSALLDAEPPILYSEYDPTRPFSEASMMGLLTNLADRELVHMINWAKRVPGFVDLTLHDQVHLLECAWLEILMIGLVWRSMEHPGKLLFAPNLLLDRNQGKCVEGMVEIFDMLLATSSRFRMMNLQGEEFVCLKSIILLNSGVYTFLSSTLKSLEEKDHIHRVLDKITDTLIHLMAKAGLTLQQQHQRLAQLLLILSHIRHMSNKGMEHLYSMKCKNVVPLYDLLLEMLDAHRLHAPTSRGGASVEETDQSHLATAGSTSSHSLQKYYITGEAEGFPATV

Molecule: IL2RA rs12722489 G, 189 bp PCR
- binding signal (fold vs A variant) [1]: 2

B1: IL2RA rs12722489 A, 32 bp (dsDNA)
DNA 1: ACTTATCCAAGGATCTGAGTGGTCTTGGAGGG
DNA 2: CCCTCCAAGACCACTCAGATCCTTGGATAAGT
- binding result [2]: no binding
